First the molecules themselves.
B1: GC5B472 (antibody, V domains shown)
VH: EVQLVQSGAEVKKPGESLKISCKGSGYSFTSYVIGWVRQMPGKGLEWMGIIYPGASDTRYSPSFQGQVTISADKSISTAYLQWSSLKASDTAMYYCARVYSFGGRHKALFDYWGQGTLVTVSS
VL: EIVLTQSPATLSLSPGERATLSCRASQSVSSYLAWYQQKPGQAPRLLIYDASNRATGIPARFSGSGSGTDFTLTISSLEPEDFAVYYCQQRSNWPLTFGQGTKVEIK
notes: GC5B164 PTM variant; also called GC5H277
B2: GC5B477 (antibody, V domains shown)
VH: EVQLVQSGAEVKKPGESLKISCKGSGYSFTSYVIGWVRQMPGKGLEWMGIIYPGSSDTRYSPSFQGQVTISADKSISTAYLQWSSLKASDTAMYYCARVYSFGGRHKALFDYWGQGTLVTVSS
VL: EIVLTQSPATLSLSPGERATLSCRASQSVSSYLAWYQQKPGQAPRLLIYDASNRATGIPARFSGSGSGTDFTLTISSLEPEDFAVYYCQQRSNWPLTFGQGTKVEIK
notes: GC5B164 PTM variant; also called GC5H272
B3: GC5B492 (antibody, V domains shown)
VH: EVQLVQSGAEVKKPGESLKISCKGSGYSFTSYVIGWVRQMPGKGLEWMGIIYPGYSDTRYSPSFQGQVTISADKSISTAYLQWSSLKASDTAMYYCARVYSFGGRHKALFDYWGQGTLVTVSS
VL: EIVLTQSPATLSLSPGERATLSCRASQSVSSYLAWYQQKPGQAPRLLIYDASNRATGIPARFSGSGSGTDFTLTISSLEPEDFAVYYCQQRSNWPLTFGQGTKVEIK
notes: GC5B164 PTM variant; also called GC5H257
B4: GC5B474 (antibody, V domains shown)
VH: EVQLVQSGAEVKKPGESLKISCKGSGYSFTSYGIGWVRQMPGKGLEWMGIIYPGASDTRYSPSFQGQVTISADKSISTAYLQWSSLKASDTAMYYCARVYSFGGRHKALFDYWGQGTLVTVSS
VL: EIVLTQSPATLSLSPGERATLSCRASQSVSSYLAWYQQKPGQAPRLLIYDASNRATGIPARFSGSGSGTDFTLTISSLEPEDFAVYYCQQRSNWPLTFGQGTKVEIK
notes: GC5B164 PTM variant; also called GC5H275
B5: GC5B481 (antibody, V domains shown)
VH: EVQLVQSGAEVKKPGESLKISCKGSGYSFTSYYIGWVRQMPGKGLEWMGIIYPGKSDTRYSPSFQGQVTISADKSISTAYLQWSSLKASDTAMYYCARVYSFGGRHKALFDYWGQGTLVTVSS
VL: EIVLTQSPATLSLSPGERATLSCRASQSVSSYLAWYQQKPGQAPRLLIYDASNRATGIPARFSGSGSGTDFTLTISSLEPEDFAVYYCQQRSNWPLTFGQGTKVEIK
notes: GC5B164 PTM variant; also called GC5H268
B6: GC5B485 (antibody, V domains shown)
VH: EVQLVQSGAEVKKPGESLKISCKGSGYSFTSYAIGWVRQMPGKGLEWMGIIYPGKSDTRYSPSFQGQVTISADKSISTAYLQWSSLKASDTAMYYCARVYSFGGRHKALFDYWGQGTLVTVSS
VL: EIVLTQSPATLSLSPGERATLSCRASQSVSSYLAWYQQKPGQAPRLLIYDASNRATGIPARFSGSGSGTDFTLTISSLEPEDFAVYYCQQRSNWPLTFGQGTKVEIK
notes: GC5B164 PTM variant; also called GC5H264
B7: GC5B475 (antibody, V domains shown)
VH: EVQLVQSGAEVKKPGESLKISCKGSGYSFTSYAIGWVRQMPGKGLEWMGIIYPGASDTRYSPSFQGQVTISADKSISTAYLQWSSLKASDTAMYYCARVYSFGGRHKALFDYWGQGTLVTVSS
VL: EIVLTQSPATLSLSPGERATLSCRASQSVSSYLAWYQQKPGQAPRLLIYDASNRATGIPARFSGSGSGTDFTLTISSLEPEDFAVYYCQQRSNWPLTFGQGTKVEIK
notes: GC5B164 PTM variant; also called GC5H274
B8: GC5B480 (antibody, V domains shown)
VH: EVQLVQSGAEVKKPGESLKISCKGSGYSFTSYAIGWVRQMPGKGLEWMGIIYPGSSDTRYSPSFQGQVTISADKSISTAYLQWSSLKASDTAMYYCARVYSFGGRHKALFDYWGQGTLVTVSS
VL: EIVLTQSPATLSLSPGERATLSCRASQSVSSYLAWYQQKPGQAPRLLIYDASNRATGIPARFSGSGSGTDFTLTISSLEPEDFAVYYCQQRSNWPLTFGQGTKVEIK
notes: GC5B164 PTM variant; also called GC5H269
B9: GC5B490 (antibody, V domains shown)
VH: EVQLVQSGAEVKKPGESLKISCKGSGYSFTSYAIGWVRQMPGKGLEWMGIIYPGESDTRYSPSFQGQVTISADKSISTAYLQWSSLKASDTAMYYCARVYSFGGRHKALFDYWGQGTLVTVSS
VL: EIVLTQSPATLSLSPGERATLSCRASQSVSSYLAWYQQKPGQAPRLLIYDASNRATGIPARFSGSGSGTDFTLTISSLEPEDFAVYYCQQRSNWPLTFGQGTKVEIK
notes: GC5B164 PTM variant; also called GC5H259
B10: GC5B476 (antibody, V domains shown)
VH: EVQLVQSGAEVKKPGESLKISCKGSGYSFTSYYIGWVRQMPGKGLEWMGIIYPGSSDTRYSPSFQGQVTISADKSISTAYLQWSSLKASDTAMYYCARVYSFGGRHKALFDYWGQGTLVTVSS
VL: EIVLTQSPATLSLSPGERATLSCRASQSVSSYLAWYQQKPGQAPRLLIYDASNRATGIPARFSGSGSGTDFTLTISSLEPEDFAVYYCQQRSNWPLTFGQGTKVEIK
notes: GC5B164 PTM variant; also called GC5H273
B11: GC5B493 (antibody, V domains shown)
VH: EVQLVQSGAEVKKPGESLKISCKGSGYSFTSYFIGWVRQMPGKGLEWMGIIYPGYSDTRYSPSFQGQVTISADKSISTAYLQWSSLKASDTAMYYCARVYSFGGRHKALFDYWGQGTLVTVSS
VL: EIVLTQSPATLSLSPGERATLSCRASQSVSSYLAWYQQKPGQAPRLLIYDASNRATGIPARFSGSGSGTDFTLTISSLEPEDFAVYYCQQRSNWPLTFGQGTKVEIK
notes: GC5B164 PTM variant; also called GC5H256
B12: GC5B487 (antibody, V domains shown)
VH: EVQLVQSGAEVKKPGESLKISCKGSGYSFTSYVIGWVRQMPGKGLEWMGIIYPGESDTRYSPSFQGQVTISADKSISTAYLQWSSLKASDTAMYYCARVYSFGGRHKALFDYWGQGTLVTVSS
VL: EIVLTQSPATLSLSPGERATLSCRASQSVSSYLAWYQQKPGQAPRLLIYDASNRATGIPARFSGSGSGTDFTLTISSLEPEDFAVYYCQQRSNWPLTFGQGTKVEIK
notes: GC5B164 PTM variant; also called GC5H262
B13: GC5B479 (antibody, V domains shown)
VH: EVQLVQSGAEVKKPGESLKISCKGSGYSFTSYGIGWVRQMPGKGLEWMGIIYPGSSDTRYSPSFQGQVTISADKSISTAYLQWSSLKASDTAMYYCARVYSFGGRHKALFDYWGQGTLVTVSS
VL: EIVLTQSPATLSLSPGERATLSCRASQSVSSYLAWYQQKPGQAPRLLIYDASNRATGIPARFSGSGSGTDFTLTISSLEPEDFAVYYCQQRSNWPLTFGQGTKVEIK
notes: GC5B164 PTM variant; also called GC5H270
B14: GC5B482 (antibody, V domains shown)
VH: EVQLVQSGAEVKKPGESLKISCKGSGYSFTSYVIGWVRQMPGKGLEWMGIIYPGKSDTRYSPSFQGQVTISADKSISTAYLQWSSLKASDTAMYYCARVYSFGGRHKALFDYWGQGTLVTVSS
VL: EIVLTQSPATLSLSPGERATLSCRASQSVSSYLAWYQQKPGQAPRLLIYDASNRATGIPARFSGSGSGTDFTLTISSLEPEDFAVYYCQQRSNWPLTFGQGTKVEIK
notes: GC5B164 PTM variant; also called GC5H267
B15: GC5B486 (antibody, V domains shown)
VH: EVQLVQSGAEVKKPGESLKISCKGSGYSFTSYYIGWVRQMPGKGLEWMGIIYPGESDTRYSPSFQGQVTISADKSISTAYLQWSSLKASDTAMYYCARVYSFGGRHKALFDYWGQGTLVTVSS
VL: EIVLTQSPATLSLSPGERATLSCRASQSVSSYLAWYQQKPGQAPRLLIYDASNRATGIPARFSGSGSGTDFTLTISSLEPEDFAVYYCQQRSNWPLTFGQGTKVEIK
notes: GC5B164 PTM variant; also called GC5H263
B16: GC5B473 (antibody, V domains shown)
VH: EVQLVQSGAEVKKPGESLKISCKGSGYSFTSYFIGWVRQMPGKGLEWMGIIYPGASDTRYSPSFQGQVTISADKSISTAYLQWSSLKASDTAMYYCARVYSFGGRHKALFDYWGQGTLVTVSS
VL: EIVLTQSPATLSLSPGERATLSCRASQSVSSYLAWYQQKPGQAPRLLIYDASNRATGIPARFSGSGSGTDFTLTISSLEPEDFAVYYCQQRSNWPLTFGQGTKVEIK
notes: GC5B164 PTM variant; also called GC5H276
B17: GC5B478 (antibody, V domains shown)
VH: EVQLVQSGAEVKKPGESLKISCKGSGYSFTSYFIGWVRQMPGKGLEWMGIIYPGSSDTRYSPSFQGQVTISADKSISTAYLQWSSLKASDTAMYYCARVYSFGGRHKALFDYWGQGTLVTVSS
VL: EIVLTQSPATLSLSPGERATLSCRASQSVSSYLAWYQQKPGQAPRLLIYDASNRATGIPARFSGSGSGTDFTLTISSLEPEDFAVYYCQQRSNWPLTFGQGTKVEIK
notes: GC5B164 PTM variant; also called GC5H271
B18: GC5B484 (antibody, V domains shown)
VH: EVQLVQSGAEVKKPGESLKISCKGSGYSFTSYGIGWVRQMPGKGLEWMGIIYPGKSDTRYSPSFQGQVTISADKSISTAYLQWSSLKASDTAMYYCARVYSFGGRHKALFDYWGQGTLVTVSS
VL: EIVLTQSPATLSLSPGERATLSCRASQSVSSYLAWYQQKPGQAPRLLIYDASNRATGIPARFSGSGSGTDFTLTISSLEPEDFAVYYCQQRSNWPLTFGQGTKVEIK
notes: GC5B164 PTM variant; also called GC5H265
B19: GC5B483 (antibody, IgG4, V domains shown)
VH: EVQLVQSGAEVKKPGESLKISCKGSGYSFTSYFIGWVRQMPGKGLEWMGIIYPGKSDTRYSPSFQGQVTISADKSISTAYLQWSSLKASDTAMYYCARVYSFGGRHKALFDYWGQGTLVTVSS
VL: EIVLTQSPATLSLSPGERATLSCRASQSVSSYLAWYQQKPGQAPRLLIYDASNRATGIPARFSGSGSGTDFTLTISSLEPEDFAVYYCQQRSNWPLTFGQGTKVEIK
notes: GC5B164 PTM variant D55K, W33F; IgG4 S228P, L234A, L235A; also called GC5H266
B20: GC5B488 (antibody, V domains shown)
VH: EVQLVQSGAEVKKPGESLKISCKGSGYSFTSYFIGWVRQMPGKGLEWMGIIYPGESDTRYSPSFQGQVTISADKSISTAYLQWSSLKASDTAMYYCARVYSFGGRHKALFDYWGQGTLVTVSS
VL: EIVLTQSPATLSLSPGERATLSCRASQSVSSYLAWYQQKPGQAPRLLIYDASNRATGIPARFSGSGSGTDFTLTISSLEPEDFAVYYCQQRSNWPLTFGQGTKVEIK
notes: GC5B164 PTM variant; also called GC5H261
B21: GC5B491 (antibody, V domains shown)
VH: EVQLVQSGAEVKKPGESLKISCKGSGYSFTSYYIGWVRQMPGKGLEWMGIIYPGYSDTRYSPSFQGQVTISADKSISTAYLQWSSLKASDTAMYYCARVYSFGGRHKALFDYWGQGTLVTVSS
VL: EIVLTQSPATLSLSPGERATLSCRASQSVSSYLAWYQQKPGQAPRLLIYDASNRATGIPARFSGSGSGTDFTLTISSLEPEDFAVYYCQQRSNWPLTFGQGTKVEIK
notes: GC5B164 PTM variant; also called GC5H258

This passage reports MFI results from patent publication US20180037651A1 (Janssen / Centocor, published 2018).

T1 sequence (Q9NZD1 whole entry): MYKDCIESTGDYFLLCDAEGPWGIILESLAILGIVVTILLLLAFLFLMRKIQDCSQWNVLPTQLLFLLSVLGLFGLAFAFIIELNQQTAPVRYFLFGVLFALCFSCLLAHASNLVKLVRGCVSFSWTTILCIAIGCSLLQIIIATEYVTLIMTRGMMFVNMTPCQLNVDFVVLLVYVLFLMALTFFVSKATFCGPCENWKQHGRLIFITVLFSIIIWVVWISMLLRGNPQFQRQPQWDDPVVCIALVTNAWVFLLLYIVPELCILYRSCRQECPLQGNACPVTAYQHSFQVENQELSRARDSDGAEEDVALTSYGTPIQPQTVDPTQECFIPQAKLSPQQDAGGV

The test has as its target T1, human GPRC5D (human, UniProt Q9NZD1 1-345).
T1 construct: on transfected HEK293/RBL cells or endogenous on myeloma cells (H929, MM1R, OPM2, LP1, JIM3, patient plasma cells); also called G protein-coupled receptor class C group 5 member D; hGPRC5D
The test can be described thus: FACS, human GPRC5D cells. (In general: A flow cytometer gives signals particle by particle.)
Molecule B1 registered an MFI of 1000 to 10000 mfi. The figure for B2 is 1000 to 10000 mfi. In the case of B3 it was more than 10000 mfi; in that of B4, 1000 to 10000 mfi. The molecule B5 had an MFI of more than 10000 mfi. On to B6, for which the MFI lay within 1000 to 10000 mfi. Molecule B7 registered an MFI of 1000 to 10000 mfi. For B8, the MFI lay in the range of 1000 to 10000 mfi. As to B9, the MFI is 1000 to 10000 mfi.

In turn, B10 registered an MFI of more than 10000 mfi. In the case of B11 it was more than 10000 mfi; in that of B12, 1000 to 10000 mfi; in that of B13, 1000 to 10000 mfi. The figure for B14 is more than 10000 mfi. In the case of B15 it was more than 10000 mfi. Molecule B16 returned an MFI of more than 10000 mfi. The figure for B17 is more than 10000 mfi; for B18 it is 1000 to 10000 mfi. B19: the MFI was more than 10000 mfi.

For the molecule B20, the MFI is more than 10000 mfi. On to B21, for which the MFI is more than 10000 mfi.
